Test results reported in FireProtDB (doi:10.1016/s0022-2836(02)00630-7).

Conditions: Bacillus subtilis (strain 168); pH 7; Thermal; CD; Potassium phosphate 10 mM; reversible: yes; whole UniProt chain shown

B1: Phosphocarrier protein HPr wild type, P08877 (protein)
chain: MAQKTFKVTADSGIHARPATVLVQTASKYDADVNLEYNGKTVNLKSIMGVMSLGIAKGAEITISASGADENDALNALEETMKSEGLGE
- Tm: 72.6 °C
- unfolding enthalpy (van 't Hoff): 74.9 kcal/mol
